# Experimental data reported in patent publication US20220251562.
# Experiments:
# [1] = system: CD3 complex on Jurkat cells (Homo sapiens); test: flow; details: apparent
# [2] = biological target: CD3 epsilon/gamma heterodimer (Homo sapiens) (UniProt P07766+P09693); test: SPR; details: steady state
# [3] = biological target: CD3 epsilon/delta heterodimer (Homo sapiens) (UniProt P07766+P04234); test: SPR; details: kinetic
# [4] = biological target: T1, CD3 epsilon/delta heterodimer (Mus musculus) (UniProt P22646+P04235); test: SPR; details: steady state
# T1 sequence 1: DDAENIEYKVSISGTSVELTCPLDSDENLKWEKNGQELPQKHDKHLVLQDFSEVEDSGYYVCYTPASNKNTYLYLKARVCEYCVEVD
# T1 sequence 2: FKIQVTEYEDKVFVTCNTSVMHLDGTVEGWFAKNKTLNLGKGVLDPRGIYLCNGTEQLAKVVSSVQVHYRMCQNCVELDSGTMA
# [5] = biological target: CD3 epsilon/delta heterodimer (Macaca fascicularis) (UniProt Q95LI5+Q95LI8); test: SPR; details: steady state
# Chain of CD3 epsilon/delta heterodimer (Macaca fascicularis) (Q95LI5 22-117, stated change not applied, chain 1 of 2): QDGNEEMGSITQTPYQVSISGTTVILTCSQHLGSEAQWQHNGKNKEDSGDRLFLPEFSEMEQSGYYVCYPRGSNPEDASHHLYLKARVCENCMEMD
# Chain of CD3 epsilon/delta heterodimer (Macaca fascicularis) (Q95LI8 22-105, stated change not applied, chain 2 of 2): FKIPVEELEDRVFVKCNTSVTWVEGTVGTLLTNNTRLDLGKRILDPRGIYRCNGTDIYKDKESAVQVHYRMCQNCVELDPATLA
# Chain of CD3 epsilon/delta heterodimer (Homo sapiens) (P07766 23-126, stated change not applied, chain 1 of 2): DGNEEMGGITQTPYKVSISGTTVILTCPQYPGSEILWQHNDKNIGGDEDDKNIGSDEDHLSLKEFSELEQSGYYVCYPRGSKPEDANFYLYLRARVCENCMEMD
# Chain of CD3 epsilon/delta heterodimer (Homo sapiens) (P04234 22-105, stated change not applied, chain 2 of 2): as the sequence (Q95LI8 22-105, stated change not applied, chain 2 of 2) above, with V5I, K15N, V20I, T32S, N33D, N34I, A64T, N74S, L83V counted along it
# Chain of CD3 epsilon/gamma heterodimer (Homo sapiens) (P07766 23-126, chain 1 of 2): as the sequence (P07766 23-126, stated change not applied, chain 1 of 2) above
# Chain of CD3 epsilon/gamma heterodimer (Homo sapiens) (P09693 23-116, chain 2 of 2): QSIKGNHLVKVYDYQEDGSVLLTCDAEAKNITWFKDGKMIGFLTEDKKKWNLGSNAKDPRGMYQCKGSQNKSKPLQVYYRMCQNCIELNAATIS
sequence,measurement,setting,value
GGGTTTGGCACGGGCTGGC [CELTIC_core_42 5'-tetrazine],Kd,"[1]; _ is abasic C3 spacer (positions 11 and 16), HEG, 5'-tetrazine-PEG5, specificity retained vs Ramos",< 25 nM
GGGTTTGGCACGGGCTGGC [CELTIC_core_42t],Kd,"[2]; _ is abasic C3 spacer at positions 11 and 16, 5'-HEG, 3'-3' dT, kinetic 43 pM (Table 8)",176 nM
same,Kd,"[3]; _ is abasic C3 spacer at positions 11 and 16, 5'-HEG, 3'-3' dT",0.275 nM
GGGTTTGGCATCGGGCTGGC [CELTIC_core_29],Kd,"[2]; _ is abasic C3 spacer at position 16, 5'-HEG, kinetic 5.4 pM (Table 8)",205 nM
same,Kd,"[3]; _ is abasic C3 spacer at position 16, 5'-HEG",0.014 nM
GGGTTTGGCACCGGGCTGGC [CELTIC_core_12],Kd,"[2]; _ is abasic C3 spacer at position 16, kinetic 1.15 pM (Table 8)",98 nM
same,Kd,[3]; _ is abasic C3 spacer at position 16,1.5 nM
GGGTTTGGCACGGGCTGGC [CELTIC_core_42],Kd,"[2]; _ is abasic C3 spacer at positions 11 and 16, 5'-HEG, kinetic 277 pM (Table 8)",194 nM
same,Kd,"[3]; _ is abasic C3 spacer at positions 11 and 16, 5'-HEG",0.772 nM
same,Kd,"[1]; _ is abasic C3 spacer (positions 11 and 16), 5'-HEG, biotin at 5' or 3' end equivalent",< 50 nM
GGGTTTGGCACGGGCCTGGC [CELTIC_core_24],Kd,"[2]; _ is abasic C3 spacer at position 11, 5'-HEG, kinetic 67 pM (Table 8)",218 nM
same,Kd,"[3]; _ is abasic C3 spacer at position 11, 5'-HEG",0.041 nM
GGGNTTGGCNNNGGGNCTGGC [CELTIC_core],Kd,[4],591000 nM
same,Kd,[2]; kinetic 845 pM (Table 8),427 nM
same,Kd,[3],1 nM
same,Kd,[5],1210 nM
same,Kd,[1]; negligible signal on Ramos,> 50 nM
GGGTTTGGCACGGGCCTGGC [CELTIC_core_24t],Kd,"[2]; _ is abasic C3 spacer at position 11, 5'-HEG, 3'-3' dT, kinetic 238 pM (Table 8)",233 nM
same,Kd,"[3]; _ is abasic C3 spacer at position 11, 5'-HEG, 3'-3' dT",0.006 nM
